Measured values as given in the Immune Epitope Database (IEDB).

Experiments:
HLA-B*07:02 = test: IEDB peptide-MHC binding, purified MHC/competitive/fluorescence; ≥ and ≤ were set here for values at or beyond the usual limits of such assays
HLA-A*24:02 = test: as above
HLA-B*08:02 = test: IEDB peptide-MHC binding, purified MHC/direct/fluorescence; filed as Kd, often an IC50 or EC50 that approximates it; ≥ and ≤ were set here for values at or beyond the usual limits of such assays
HLA-B*08:01 = test: as above
HLA-A*02:01 [1] = test: IEDB peptide-MHC binding, purified MHC/competitive/fluorescence; filed as Kd, often an IC50 or EC50 that approximates it; ≥ and ≤ were set here for values at or beyond the usual limits of such assays
HLA-A*11:01 [2] = test: IEDB peptide-MHC binding, purified MHC/direct/fluorescence; filed as Kd, often an IC50 or EC50 that approximates it; ≥ and ≤ were set here for values at or beyond the usual limits of such assays; conditions: source organism: West Nile virus
HLA-A*31:01 = test: as above; conditions: source organism: West Nile virus
HLA-A*01:01 = test: as above; conditions: source organism: West Nile virus
HLA-B*58:01 = test: as above; conditions: source organism: West Nile virus
HLA-B*44:02 = test: as above; conditions: source organism: West Nile virus
HLA-B*18:01 [3] = test: as above; conditions: source organism: West Nile virus
HLA-B*40:01 = test: as above; conditions: source organism: West Nile virus
HLA-B*15:01 [4] = test: as above; conditions: source organism: West Nile virus
HLA-A*29:02 = test: as above; conditions: source organism: West Nile virus
HLA-A*03:01 [5] = test: as above
HLA-B*27:05 = test: as above; conditions: source organism: West Nile virus
HLA-A*69:01 [6] = test: as above; conditions: source organism: West Nile virus
HLA-B*46:01 [7] = test: as above; conditions: source organism: West Nile virus
HLA-A*02:01 [8] = test: as above; conditions: source organism: West Nile virus
HLA-B*51:01 [9] = test: as above; conditions: source organism: West Nile virus
HLA-A*11:01 [10] = test: IEDB peptide-MHC binding, purified MHC/competitive/fluorescence; ≥ and ≤ were set here for values at or beyond the usual limits of such assays; conditions: source organism: Vaccinia virus Copenhagen
HLA-A*03:01 [11] = test: as above; conditions: source organism: Vaccinia virus Copenhagen
HLA-A*02:16 = test: IEDB peptide-MHC binding, purified MHC/direct/fluorescence; filed as Kd, often an IC50 or EC50 that approximates it; ≥ and ≤ were set here for values at or beyond the usual limits of such assays; conditions: source organism: Zaire ebolavirus
HLA-A*02:12 = test: as above; conditions: source organism: Zaire ebolavirus
HLA-A*02:03 = test: as above; conditions: source organism: Zaire ebolavirus
HLA-A*02:19 = test: as above; conditions: source organism: Zaire ebolavirus
HLA-A*02:11 = test: as above; conditions: source organism: Zaire ebolavirus
HLA-A*24:03 = test: as above; conditions: source organism: Ebola virus - Gabon (1994-1997)
HLA-A*68:02 = test: as above; conditions: source organism: Zaire ebolavirus
HLA-B*27:03 = test: IEDB peptide-MHC binding, purified MHC/competitive/fluorescence; filed as Kd, often an IC50 or EC50 that approximates it; ≥ and ≤ were set here for values at or beyond the usual limits of such assays; conditions: source organism: Zaire ebolavirus
HLA-B*39:01 = test: as above; conditions: source organism: Zaire ebolavirus
HLA-B*18:01 [12] = test: as above; conditions: source organism: Zaire ebolavirus
HLA-B*15:01 [13] = test: as above; conditions: source organism: Zaire ebolavirus
HLA-B*15:17 = test: as above; conditions: source organism: Zaire ebolavirus
HLA-A*69:01 [14] = test: as above; conditions: source organism: Zaire ebolavirus
HLA-B*46:01 [15] = test: as above; conditions: source organism: Zaire ebolavirus
HLA-A*26:01 = test: as above; conditions: source organism: Zaire ebolavirus
HLA-B*57:01 = test: as above; conditions: source organism: Zaire ebolavirus
HLA-B*51:01 [16] = test: as above; conditions: source organism: Zaire ebolavirus
[17] = source organism: Zaire ebolavirus
[18] = source organism: Giardia lamblia ATCC 50803
[19] = source organism: West Nile virus
[20] = source organism: Vaccinia virus Copenhagen

## AAPDGIRGF
HLA-B*07:02; [17]
  IC50: 12.2 µM
HLA-A*24:02; [17]
  IC50: 69.8 µM

## ELRKRNEAL
HLA-B*08:02; [18]
  Kd: 2.82 µM
HLA-B*08:01; [18]
  Kd: 0.042 µM
HLA-A*02:01 [1]; [18]
  Kd: ≥ 20 µM

## GPRGALSLL
HLA-B*07:02; source organism: Homo sapiens
  IC50: 0.166 µM

## HSRRSRRSL
HLA-A*11:01 [2]
  Kd: ≥ 20 µM
HLA-A*31:01
  Kd: ≥ 20 µM
HLA-A*01:01
  Kd: ≥ 20 µM
HLA-B*58:01
  Kd: ≥ 20 µM
HLA-B*44:02
  Kd: ≥ 20 µM
HLA-B*18:01 [3]
  Kd: ≥ 20 µM
HLA-B*40:01
  Kd: ≥ 20 µM
HLA-B*15:01 [4]
  Kd: ≥ 20 µM
HLA-A*29:02
  Kd: ≥ 20 µM
HLA-A*03:01 [5]; [19]
  Kd: ≥ 20 µM
HLA-B*08:02; source organism: West Nile virus strain PTRoxo
  Kd: 5.67 µM
HLA-B*27:05
  Kd: ≥ 20 µM
HLA-A*69:01 [6]
  Kd: ≥ 20 µM
HLA-B*46:01 [7]
  Kd: ≥ 20 µM
HLA-A*02:01 [8]
  Kd: ≥ 20 µM
HLA-B*08:01; [19]
  Kd: 0.211 µM
HLA-B*51:01 [9]
  Kd: ≥ 20 µM

## IPYFGPAAE
HLA-B*07:02; [17]
  IC50: ≥ 135 µM

## KITFALKKL
HLA-A*11:01 [10]
  IC50: 19.3 µM
HLA-B*07:02; [20]
  IC50: 61.2 µM
HLA-A*24:02; [20]
  IC50: 34.8 µM
HLA-A*03:01 [11]
  IC50: 11.3 µM

## KPGPDNSTH
HLA-B*07:02; [17]
  IC50: ≥ 191 µM

## LPKTSGHYD
HLA-B*07:02; [17]
  IC50: ≥ 182 µM

## MLKRRGFHL
HLA-B*08:02; source organism: Salmonella enterica subsp. enterica serovar Typhi str. CT18
  Kd: 0.102 µM

## NYNGLLSSI
HLA-A*02:16
  Kd: ≥ 20 µM
HLA-A*02:12
  Kd: ≥ 20 µM
HLA-A*02:03
  Kd: ≥ 20 µM
HLA-A*02:19
  Kd: ≥ 20 µM
HLA-A*03:01 [5]; [17]
  Kd: ≥ 20 µM
HLA-A*02:11
  Kd: ≥ 20 µM
HLA-A*24:03
  Kd: 0.0003 µM
HLA-A*68:02
  Kd: ≥ 20 µM
HLA-B*27:03
  Kd: ≥ 20 µM
HLA-B*39:01
  Kd: ≥ 20 µM
HLA-B*18:01 [12]
  Kd: ≥ 20 µM
HLA-B*15:01 [13]
  Kd: ≥ 20 µM
HLA-B*15:17
  Kd: ≥ 20 µM
HLA-A*69:01 [14]
  Kd: ≥ 20 µM
HLA-B*46:01 [15]
  Kd: ≥ 20 µM
HLA-A*26:01
  Kd: ≥ 20 µM
HLA-B*57:01
  Kd: ≥ 20 µM
HLA-A*02:01 [1]; [17]
  Kd: ≥ 20 µM
HLA-B*51:01 [16]
  Kd: ≥ 20 µM
